The source of these data is patent publication US20120003149A1.

Assay [1] addresses full-length human GPR87 with an N-terminal FLAG tag, stably expressed on CHO cells (human). Put plainly: flow cytometry, hGPR87 stable expression CHO cell line, antibody at 1 µg/mL (no primary antibody: 18.36). In general terms: Flow cytometry measures light scatter and fluorescence of single cells or particles in a stream.
The target is the same in assay [2]. Put plainly: flow cytometry, hGPR87 stable expression CHO cell line, antibody at 10 µg/mL (no primary antibody: 18.36).
The target is the same in assay [3]. Put plainly: flow cytometry, hGPR87 stable expression CHO cell line, antibody at 0.1 µg/mL (no primary antibody: 18.36).
The target is the same in assay [4]. Put plainly: flow cytometry, hGPR87 stable expression CHO cell line, antibody at 0.01 µg/mL (no primary antibody: 18.36).
Assay [5] has as its target human GPR87 (G protein-coupled receptor 87), endogenously expressed in Me180 cells (human). Put plainly: flow cytometry, Me180 cells transfected with control siRNA, antibody at 1 µg/mL (no primary antibody: 10.71).
For assay [6] the target is unchanged. Description: flow cytometry, Me180 cells transfected with control siRNA, antibody at 10 µg/mL (no primary antibody: 10.71).
For assay [7] the target is unchanged. Put plainly: flow cytometry, Me180 cells transfected with control siRNA, antibody at 0.1 µg/mL (no primary antibody: 10.71).
Assay [8] shares this target. Put plainly: flow cytometry, Me180 cells transfected with siRNA against GPR87 (expression suppressed to 5.9% at the RNA level), antibody at 1 µg/mL (no primary antibody: 10.16).
Assay [9] shares this target. Put plainly: flow cytometry, Me180 cells transfected with siRNA against GPR87 (expression suppressed to 5.9% at the RNA level), antibody at 10 µg/mL (no primary antibody: 10.16).
The target is the same in assay [10]. Description: flow cytometry, Me180 cells transfected with siRNA against GPR87 (expression suppressed to 5.9% at the RNA level), antibody at 0.1 µg/mL (no primary antibody: 10.16).

Numbering of substitutions follows the chain as printed.

Sequence of full-length human GPR87 with an N-terminal FLAG tag, stably expressed on CHO cells (human) (chain, as listed by the source): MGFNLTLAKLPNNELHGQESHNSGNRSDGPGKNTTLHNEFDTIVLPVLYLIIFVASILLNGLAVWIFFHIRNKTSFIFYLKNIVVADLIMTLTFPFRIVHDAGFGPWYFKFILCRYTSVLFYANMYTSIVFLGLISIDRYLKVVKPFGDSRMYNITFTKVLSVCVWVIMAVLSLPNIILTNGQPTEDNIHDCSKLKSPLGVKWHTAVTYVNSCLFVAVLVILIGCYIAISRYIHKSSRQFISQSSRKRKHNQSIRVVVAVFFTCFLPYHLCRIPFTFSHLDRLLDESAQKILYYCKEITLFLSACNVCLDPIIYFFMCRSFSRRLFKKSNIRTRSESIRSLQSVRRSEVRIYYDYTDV
Sequence of human GPR87 (G protein-coupled receptor 87), endogenously expressed in Me180 cells (human) (chain, as listed by the source): as above

B1: C0804 antibody (antibody, V domains shown)
VH: QIQLVQSGPELKKPGETVKISCKVSGYTFTDYSMHWVKQAPGKGLKWMAWINTETGKPTYADDFKGRFAFSLEASASTAYLQINNLKNEDTATYFCASLDYWGQGTTLTVSS
VL: DVLMTQTPLSLPVSLGDQASISCRSSQNVVHSSGNTYLEWFLQKPGQSPKLLIYKVSTRFSGVPDRFSGSGSGTDFTLKISRVEAEDLGVYYCFQGSHVPYTFGGGTKLEIKR
In the case of B1, the geometric mean of the fluorescence intensity turned out to be 578 in [1]; 1240 in assay [2]; 110 in [3]; 28.9 in assay [4]; 24.6 in [5]; 63.5 in [6]. The geometric mean of the fluorescence intensity was 12.9 in [7], 12.9 in assay [8], 20.6 in [9] and 10.3 in assay [10].

B2: C0815 antibody (antibody, V domains shown)
VH: B1 VH with K13N, A74T, N85T
VL: B1 VL with T58N
As for B2, the geometric mean of the fluorescence intensity in assay [1] is 496; in assay [2] it was 1290; in [3], 91.6; in assay [4] it was 26.9; in assay [5] it was 28.8; in [6] it was 60.5. For the same molecule, the geometric mean of the fluorescence intensity in assay [7] is 13.3; in [8] it was 13.6; in assay [9] it was 22.4; in assay [10], 10.1.
